Starred links: 1 amine or outer side, 2 acyl side, 3 side chain; linkers in the order of their positions; H or OH if unused. Positions of bridges follow the written chain, without caps; N, C: chain ends. Residues, ends and D or L forms follow the SMILES beside them. TBMB = c1c(C[*:1])cc(C[*:3])cc1C[*:2]
T1: recombinant human CD59 (Homo sapiens, UniProt P13987)
T1 construct: purchased Abcam ab134887
T1 sequence (P13987 26-128): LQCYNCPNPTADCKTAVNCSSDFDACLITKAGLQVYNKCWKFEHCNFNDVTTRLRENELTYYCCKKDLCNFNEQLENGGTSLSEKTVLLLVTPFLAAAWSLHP

T2: human recombinant CD59 protein (human, UniProt P13987 26-99)
T2 construct: CD59, human, recombinant commercial product (Abcam ab134887); also called commercial CD59 (ab134887); source: bought: Abcam (ab134887), recombinant
T2 sequence: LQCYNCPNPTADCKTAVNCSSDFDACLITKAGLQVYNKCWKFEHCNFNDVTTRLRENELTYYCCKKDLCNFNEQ


Legend:
recombinant human CD59 [1] = target: T1, recombinant human CD59; test: Surface Plasmon Resonance (SPR) direct binding assay; conditions: for kon: CD59 on CM5 chip, HBS-EP, 25 °C, 1:1 fit, average over tested peptide concentrations, read-out: ka
Protocol: (§1) The bicyclic peptides were tested for their ability to bind to recombinant human CD59. Direct binding assays were performed both using Surface Plasmon Resonance (SPR) and Biolayer Interferometry (BLI) label-free techniques (Figure 5). In both cases, after immobilisation of the protein on the sensor chips, the peptides were tested at increasing concentrations between 2.5 µM and 50 µM. […] Binding experiments were next repeated using BLI to confirm the recognition.
Assessment of binding kinetics and affinity between pm59 peptides and CD59 was performed at 25 °C using standard protocols on a BIACORE 3000 system (GE Healthcare, Little Chalfont, UK) with a research-grade CM5 (Carboxymethyl dextran) sensor chip and using commercial CD59 (ab134887) obtained from Abcam (Cambridge, UK). After chip preparation according to the manufacturer’s guidelines and surface activation, CD59 was immobilised onto the chip at a density of 4000 RU (0.5 mg/mL in 10 μL/min) on a NaAc buffer at pH 4.5. Bovine serum albumin (BSA) was immobilised on flow cell 2 to serve as reference. All surfaces were blocked with a 7′ injection of 1 M ethanolamine at pH 8.5.
The bicyclic acetylated CD59-targeting peptides were diluted in HBS-EP buffer (GE Healthcare, Little Chalfont, UK) and injected over the flow cells at a flow rate of 30 μL/min and concentrations ranging from 1 μM to 30 μM. Association of the complexes was allowed for 120 s and dissociation for 240 s. Regeneration of the surfaces was obtained by the sequential injection of 5 mM NaOH pulses (10 μL/min) until the established baseline was reached. Kinetics and binding data were fitted to a 1:1 stoichiometric interaction model using the global data analysis of the BIAevaluation software (GE Healthcare, Little Chalfont, UK) and Graphpad (Graphpad software, San Diego, CA, USA).

recombinant human CD59 [2] = target: T1, recombinant human CD59; test: Biolayer Interferometry (BLI) direct binding assay; conditions: for kon / koff: CD59 on AR2G sensor, Kinetic Buffer, 1:1 fit; for kon: read-out: ka; for koff: read-out: kdis
Protocol: as §1
The BLI technique was used to assess the binding of the peptides towards the human recombinant CD59 protein (Abcam code ab134887). The protein was efficiently immobilized at 15 μg/mL in 10 mM NaAc at pH 4.5 on a AR2G sensor chip (Sartorius) according to the manufacturer’s instructions. An unmodified sensor chip was used as blank. The peptides were tested at increasing concentrations from 5 µM to 50 µM dissolved in Kinetic Buffer (PBS containing 0.02% Tween20, 0.1% BSA, 0.05% sodium azide) and using the same running buffer. All analyses were carried out at 25 °C; 10 mM NaOH was used to regenerate the chip surface. All mathematical manipulations were performed using the Octet Analysis Studio 12.2 software from Sartorius. Data were fitted assuming a 1:1 Langmuir binding model determining the KDs by the global analysis mode. Binding curves were exported and charted using GraphPad software, vers. 5.

[3] = target: T2, human recombinant CD59 protein; test: SPR; CD59 immobilised on a CM5 chip (4000 RU, NaAc buffer pH 4.5), BSA on the reference flow cell; peptides in HBS-EP injected at 30 μL/min, 25 °C, BIACORE 3000; 1:1 Langmuir model; conditions: both partners purified
[4] = target: T2, human recombinant CD59 protein; test: BLI; CD59 immobilised at 15 μg/mL in 10 mM NaAc pH 4.5 on an AR2G sensor; peptides 5 µM to 50 µM in Kinetic Buffer (PBS, 0.02% Tween20, 0.1% BSA, 0.05% sodium azide), 25 °C; 1:1 Langmuir model; conditions: both partners purified
[5] = 25 °C, average over tested peptide concentrations

Row | Molecule | kon (recombinant human CD59 [1]) [M⁻¹ s⁻¹] | kon (recombinant human CD59 [2]; [5]) [M⁻¹ s⁻¹] | koff (recombinant human CD59 [2]; [5]) [s⁻¹] | KD at 5 μM [3] [µM] | KD at 10 μM [3] [µM] | KD at 20 μM [3] [µM] | KD at 30 μM [3] [µM] | Kd [3] [µM] | ka at 5 μM [3] [M⁻¹ s⁻¹] | ka at 10 μM [3] [M⁻¹ s⁻¹] | ka at 20 μM [3] [M⁻¹ s⁻¹] | ka at 30 μM [3] [M⁻¹ s⁻¹] | kd at 5 μM [3] [s⁻¹] | kd at 10 μM [3] [s⁻¹] | kd at 20 μM [3] [s⁻¹] | kd at 30 μM [3] [s⁻¹] | koff [3] [s⁻¹] | KD at 10 μM [4] [µM] | KD at 20 μM [4] [µM] | KD at 30 μM [4] [µM] | also measured
1 | CC(=O)N[C@H]1CSCc2cc3cc(c2)CSC[C@H](NC(=O)[C@H](CC(C)C)NC(=O)[C@H](Cc2ccc(O)cc2)NC(=O)[C@H](CCCCN)NC(=O)[C@H](CC(N)=O)NC1=O)C(=O)N[C@@H](CCC(N)=O)C(=O)N[C@@H](Cc1ccc(O)cc1)C(=O)N[C@@H](Cc1ccc(O)cc1)C(=O)N[C@@H](CO)C(=O)N[C@@H]([C@@H](C)O)C(=O)N[C@H](C(N)=O)CSC3 [pm59sh] (Ac-CNKYLCQYYSTC-NH2; linker 1-6-12 via TBMB) | 2930 | 463 | 0.00268 |  |  |  |  |  |  |  |  |  |  |  |  |  |  |  |  |  | 
2 | Ac-CNNKYLACQQYYSTPC-NH2 (also: bicyclic or more (positions not given here)) [pm59ln, long bicyclic paratope-mimicking peptide of MB59 VL CDR1/CDR3, three cysteines linked by TBMB, N-acetylated, C-amidated] |  |  |  |  |  |  |  |  |  |  |  |  |  |  |  |  |  |  |  |  | binding to CD59 (in words) (recombinant human CD59 [1]; immobilised CD59, peptide at increasing concentrations between 2.5 µM and 50 µM (Figure 5E)): No significant binding; binding to CD59 (in words) (recombinant human CD59 [2]; immobilised CD59, peptide at increasing concentrations between 2.5 µM and 50 µM (Figure 5F)): No significant binding
3 | CC(=O)N[C@H]1CSCc2cc3cc(c2)CSC[C@H](NC(=O)[C@H](CC(C)C)NC(=O)[C@H](Cc2ccc(O)cc2)NC(=O)[C@H](CCCCN)NC(=O)[C@H](CC(N)=O)NC(=O)[C@H](CC(N)=O)NC1=O)C(=O)N[C@@H](CCC(N)=O)C(=O)N[C@@H](Cc1ccc(O)cc1)C(=O)N[C@@H](Cc1ccc(O)cc1)C(=O)N[C@@H](CO)C(=O)N[C@@H]([C@@H](C)O)C(=O)N1CCC[C@H]1C(=O)N[C@H](C(N)=O)CSC3 [pm59md] (Ac-CNNKYLCQYYSTPC-NH2; linker 1-7-14 via TBMB) | 2930 | 919 | 0.00333 |  |  |  |  |  |  |  |  |  |  |  |  |  |  |  |  |  | Kd (recombinant human CD59 [2]; OCTET R8, CD59 immobilised on AR2G sensor, Kinetic Buffer (PBS, 0.02% Tween20, 0.1% BSA, 0.05% sodium azide), 25 °C, 1:1 Langmuir fit, average over tested peptide concentrations): 4.39 µM
4 | Ac-CNKYLCQYYSTC-NH2 (linker 1-6-12 via TBMB; SMILES CC(=O)N[C@H]1CSCc2cc3cc(c2)CSC[C@H](NC(=O)[C@H](CC(C)C)NC(=O)[C@H](Cc2ccc(O)cc2)NC(=O)[C@H](CCCCN)NC(=O)[C@H](CC(N)=O)NC1=O)C(=O)N[C@@H](CCC(N)=O)C(=O)N[C@@H](Cc1ccc(O)cc1)C(=O)N[C@@H](Cc1ccc(O)cc1)C(=O)N[C@@H](CO)C(=O)N[C@@H]([C@@H](C)O)C(=O)N[C@H](C(N)=O)CSC3, designed from key residues of the CDR1 and CDR3 loops of the VL chain of the scFv MB59, flanking residues changed to cysteines; also called short version of pm59; source: synthetic peptide (Fmoc solid phase, bi-cyclised with TBMB, RP-HPLC purified)) [pm59sh, bicyclic paratope-mimicking peptide (short version)] |  |  |  | 0.469 | 1.64 | 2.61 | 4.46 | 2.42 | 7260 | 3010 | 1560 | 1230 | 0.0034 | 0.00493 | 0.00408 | 0.00548 | 0.00469 | 4.98 | 9.92 | 8.45 | KD at 7.5 μM [3]: 1.24 µM; KD at 15 μM [3]: 2.39 µM; KD at 25 μM [3]: 4.13 µM; ka at 7.5 μM [3]: 4210 M⁻¹ s⁻¹; ka at 15 μM [3]: 2050 M⁻¹ s⁻¹; ka at 25 μM [3]: 1160 M⁻¹ s⁻¹; kd at 7.5 μM [3]: 0.00523 s⁻¹; kd at 15 μM [3]: 0.0049 s⁻¹; kd at 25 μM [3]: 0.00481 s⁻¹; KD at 5 μM [4]: 0.865 µM; KD at 40 μM [4]: 15 µM; KD at 50 μM [4]: 15.9 µM; Kd [4]: 9.18 µM; ka at 5 μM [4]: 1130 M⁻¹ s⁻¹; ka at 10 μM [4]: 524 M⁻¹ s⁻¹; ka at 20 μM [4]: 294 M⁻¹ s⁻¹; ka at 30 μM [4]: 451 M⁻¹ s⁻¹; ka at 40 μM [4]: 197 M⁻¹ s⁻¹; ka at 50 μM [4]: 178 M⁻¹ s⁻¹
5 | Ac-CNNKYLCQYYSTPC-NH2 (linker 1-7-14 via TBMB; SMILES CC(=O)N[C@H]1CSCc2cc3cc(c2)CSC[C@H](NC(=O)[C@H](CC(C)C)NC(=O)[C@H](Cc2ccc(O)cc2)NC(=O)[C@H](CCCCN)NC(=O)[C@H](CC(N)=O)NC(=O)[C@H](CC(N)=O)NC1=O)C(=O)N[C@@H](CCC(N)=O)C(=O)N[C@@H](Cc1ccc(O)cc1)C(=O)N[C@@H](Cc1ccc(O)cc1)C(=O)N[C@@H](CO)C(=O)N[C@@H]([C@@H](C)O)C(=O)N1CCC[C@H]1C(=O)N[C@H](C(N)=O)CSC3, designed from key residues of the CDR1 and CDR3 loops of the VL chain of the scFv MB59, flanking residues changed to cysteines; also called medium version of pm59; source: synthetic peptide (Fmoc solid phase, bi-cyclised with TBMB, RP-HPLC purified)) [pm59md, bicyclic paratope-mimicking peptide (medium version)] |  |  |  | 0.902 | 1.09 | 3.1 | 4.39 | 3.13 | 7080 | 4830 | 2290 | 1270 | 0.00638 | 0.00526 | 0.0071 | 0.00627 | 0.00582 | 1.23 | 4.12 | 6.09 | KD at 2.5 μM [3]: 1.38 µM; KD at 40 μM [3]: 3.88 µM; KD at 50 μM [3]: 4.9 µM; ka at 2.5 μM [3]: 5960 M⁻¹ s⁻¹; ka at 40 μM [3]: 1320 M⁻¹ s⁻¹; ka at 50 μM [3]: 980 M⁻¹ s⁻¹; kd at 2.5 μM [3]: 0.00814 s⁻¹; kd at 40 μM [3]: 0.00511 s⁻¹; kd at 50 μM [3]: 0.0048 s⁻¹; KD at 25 μM [4]: 6.52 µM; KD at 40 μM [4]: 8.38 µM; ka at 5 μM [4]: 963 M⁻¹ s⁻¹; ka at 10 μM [4]: 1560 M⁻¹ s⁻¹; ka at 20 μM [4]: 889 M⁻¹ s⁻¹; ka at 25 μM [4]: 783 M⁻¹ s⁻¹; ka at 30 μM [4]: 750 M⁻¹ s⁻¹; ka at 40 μM [4]: 564 M⁻¹ s⁻¹
